For four molecules, pKd results are on record in publication PMC9482650, “Quantitative fragmentomics allow affinity mapping of interactomes” (Nature Communications, 2022).

Common to all, as to assay: holdup assay
Holding throughout (parameters): key: below the threshold = too weak to quantify, mostly under pKd 3.1 to 4

The target in test [1] is CASK, O14936.
The target of test [2] is T1, LIN7B, Q9HAP6.
T1 sequence (Q9HAP6 88-185, limits assumed, looked up): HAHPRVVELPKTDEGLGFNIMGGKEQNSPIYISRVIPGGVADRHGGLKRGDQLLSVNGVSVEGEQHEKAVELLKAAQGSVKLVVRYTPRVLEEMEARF

The target of test [3] is MAST2, Q6P0Q8.
The target in test [4] is PTPN3, P26045.
The target in test [5] is T2, MPP2, Q14168.
T2 sequence (Q14168 180-250, limits assumed, looked up): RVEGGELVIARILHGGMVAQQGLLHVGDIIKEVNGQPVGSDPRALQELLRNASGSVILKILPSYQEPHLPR

Test [6] addresses FRMPD2_2, Q68DX3.
In test [7] the target is T3, SNTB1, Q13884.
T3 sequence (Q13884 107-205, limits assumed, looked up): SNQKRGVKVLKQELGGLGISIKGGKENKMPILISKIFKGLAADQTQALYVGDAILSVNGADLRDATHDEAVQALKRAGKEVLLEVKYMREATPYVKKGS

In test [8] the target is T4, SIPA1L2, Q9P2F8.
T4 sequence (Q9P2F8 945-1036, limits assumed, looked up): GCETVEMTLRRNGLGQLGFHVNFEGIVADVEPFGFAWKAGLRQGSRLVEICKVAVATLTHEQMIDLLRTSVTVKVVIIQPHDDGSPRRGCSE

In test [9] the target is DLG4_1, P78352.
Test [10] has as its target T5, APBA2_2, Q99767.
T5 sequence (Q99767 654-744, limits assumed, looked up): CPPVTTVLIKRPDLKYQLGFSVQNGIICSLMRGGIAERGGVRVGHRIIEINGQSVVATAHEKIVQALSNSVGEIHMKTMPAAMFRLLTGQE

In test [11] the target is GRIP2_4, Q9C0E4.
For test [12], the target named is MAGI2_6, Q86UL8.
Test [13] deals with T6, MPP7, Q5T2T1.
T6 sequence (Q5T2T1 134-230, limits assumed, looked up): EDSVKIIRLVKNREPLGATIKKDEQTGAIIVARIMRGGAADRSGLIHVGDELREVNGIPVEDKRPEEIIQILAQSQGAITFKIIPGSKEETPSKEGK

In test [14] the target is T7, NHERF3_4, Q5T2W1.
T7 sequence (Q5T2W1 373-468, limits assumed, looked up): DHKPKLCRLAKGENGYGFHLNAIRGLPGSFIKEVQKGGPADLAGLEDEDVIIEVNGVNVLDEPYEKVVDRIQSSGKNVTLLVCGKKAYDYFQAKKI

In test [15] the target is T8, PDZD7_3, Q9H5P4.
T8 sequence (Q9H5P4 857-944, limits assumed, looked up): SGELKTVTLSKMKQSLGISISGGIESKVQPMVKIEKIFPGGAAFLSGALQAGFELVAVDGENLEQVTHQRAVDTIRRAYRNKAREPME

The target in test [16] is T9, ARHGAP21, Q5T5U3.
T9 sequence (Q5T5U3 45-169, limits assumed, looked up): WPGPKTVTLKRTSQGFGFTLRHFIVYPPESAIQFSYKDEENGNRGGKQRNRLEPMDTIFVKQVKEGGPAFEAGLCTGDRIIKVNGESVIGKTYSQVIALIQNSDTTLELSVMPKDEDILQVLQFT

Test [17] deals with Inadl_4, Q8NI35.
In test [18] the target is T10, APBA1_2, Q02410.
T10 sequence (Q02410 742-832, limits assumed, looked up): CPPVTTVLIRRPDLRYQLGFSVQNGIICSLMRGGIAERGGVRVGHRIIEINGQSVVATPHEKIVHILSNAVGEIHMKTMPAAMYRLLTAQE

Test [19] concerns the target T11, NHERF3_3, Q5T2W1.
T11 sequence (Q5T2W1 238-333, limits assumed, looked up): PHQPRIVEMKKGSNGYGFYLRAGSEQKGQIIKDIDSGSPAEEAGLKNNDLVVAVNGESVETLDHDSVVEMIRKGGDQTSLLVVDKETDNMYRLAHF

Test [20] concerns the target T12, MPDZ_5, O75970.
T12 sequence (O75970 695-796, limits assumed, looked up): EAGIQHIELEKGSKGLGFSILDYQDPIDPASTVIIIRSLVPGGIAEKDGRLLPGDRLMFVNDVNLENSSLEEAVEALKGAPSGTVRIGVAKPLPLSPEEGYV

The target of test [21] is T13, TX1BP3, O14907.
T13 sequence (O14907 10-122, limits assumed, looked up): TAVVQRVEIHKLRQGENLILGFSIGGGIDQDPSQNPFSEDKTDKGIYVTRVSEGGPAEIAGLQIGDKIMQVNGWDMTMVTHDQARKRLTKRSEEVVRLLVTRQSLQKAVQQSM

In test [22] the target is T14, GRIP1_5, Q9Y3R0.
T14 sequence (Q9Y3R0 568-668, limits assumed, looked up): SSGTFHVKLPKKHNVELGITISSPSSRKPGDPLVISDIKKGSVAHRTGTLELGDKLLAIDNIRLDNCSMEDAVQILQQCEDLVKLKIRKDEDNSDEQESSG

Test [23] deals with ARHGEF12, Q9NZN5-2.
The target of test [24] is PDLIM1, O00151.
The mark [25] stands for this setting: plain residues with an end cap or a label only (N-terminal biotin on a linker: ado-ado).
Setting [26] is: plain residues with an end cap or a label only (N-terminal biotin on a linker: ahx).

In general, pKd refers to the Kd on a negative log10 scale, so that one unit is a factor of ten.

Chain of MAGI2_6, Q86UL8 (Q86UL8 1141-1229): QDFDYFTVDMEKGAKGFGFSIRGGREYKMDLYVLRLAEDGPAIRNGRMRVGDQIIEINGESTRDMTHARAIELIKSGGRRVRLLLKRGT
Chain of PTPN3, P26045 (P26045 505-587): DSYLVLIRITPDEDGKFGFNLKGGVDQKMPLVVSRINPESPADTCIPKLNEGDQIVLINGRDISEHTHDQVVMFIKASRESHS
Chain of Inadl_4, Q8NI35 (Q8NI35 547-651): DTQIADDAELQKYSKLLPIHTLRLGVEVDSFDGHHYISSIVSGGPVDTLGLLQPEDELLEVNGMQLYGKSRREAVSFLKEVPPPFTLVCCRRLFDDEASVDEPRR
Chain of PDLIM1, O00151 (O00151 1-87): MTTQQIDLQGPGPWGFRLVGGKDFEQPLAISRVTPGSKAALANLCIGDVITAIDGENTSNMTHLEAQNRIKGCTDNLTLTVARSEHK
Chain of ARHGEF12, Q9NZN5-2 (Q9NZN5 other isoform, or with tags, fused parts or gaps): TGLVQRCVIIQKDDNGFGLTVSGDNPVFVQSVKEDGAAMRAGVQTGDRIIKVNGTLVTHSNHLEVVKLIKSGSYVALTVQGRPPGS
Chain of CASK, O14936 (O14936 487-570): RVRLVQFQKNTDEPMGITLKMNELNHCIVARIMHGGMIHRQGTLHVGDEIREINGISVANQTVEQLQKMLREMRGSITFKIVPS
Chain of DLG4_1, P78352 (P78352 62-152): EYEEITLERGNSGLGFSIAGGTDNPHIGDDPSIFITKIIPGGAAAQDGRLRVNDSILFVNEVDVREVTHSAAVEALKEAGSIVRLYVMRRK
Chain of MAST2, Q6P0Q8 (Q6P0Q8 1099-1202): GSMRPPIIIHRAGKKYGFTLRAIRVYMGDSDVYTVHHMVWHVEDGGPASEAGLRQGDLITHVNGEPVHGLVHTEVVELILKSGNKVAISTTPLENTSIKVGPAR
Chain of GRIP2_4, Q9C0E4 (Q9C0E4 446-548): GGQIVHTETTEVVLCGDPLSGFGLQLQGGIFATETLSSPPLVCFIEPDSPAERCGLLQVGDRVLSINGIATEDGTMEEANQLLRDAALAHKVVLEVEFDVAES
Chain of FRMPD2_2, Q68DX3 (Q68DX3 944-1038): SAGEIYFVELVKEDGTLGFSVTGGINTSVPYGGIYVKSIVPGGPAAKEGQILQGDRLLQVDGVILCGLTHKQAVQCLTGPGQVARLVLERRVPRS

B1: HTR2A, P28223 (peptide)
chain: DGVNEKVSCV
For B1, the negative logarithm of the Kd (pKd) result in test [1] (setting [25]) is “below the threshold”; in test [2] (setting [25]), 3.79; in test [3] (setting [25]), 4.52; in test [4] (setting [25]) it was 4.86; in test [5] (setting [25]), “below the threshold”; in [6] (setting [25]), 4.65. Besides, the negative-log Kd (pKd) was 4.72 in test [7] (setting [25]); “below the threshold” in test [8] (setting [25]); 3.69 in [9] (setting [25]); “below the threshold” in [10] (setting [25]); “below the threshold” in [11] (setting [25]); 4.47 in test [12] (setting [25]). The pKd result is “below the threshold” in test [13] (setting [25]); “below the threshold” in test [14] (setting [25]); 4.72 in [15] (setting [25]); “below the threshold” in test [16] (setting [25]); “below the threshold” in [17] (setting [25]); 4 in [18] (setting [25]). In addition, the negative-log Kd (pKd) result in test [19] (setting [25]) is “below the threshold”; in [20] (setting [25]) it was “below the threshold”; in test [21] (setting [25]), 3.61; in [22] (setting [25]), “below the threshold”; in test [23] (setting [25]) it was 4.36; in test [24] (setting [25]), “below the threshold”.

B2: SRC, P12931 (peptide)
chain: EPQYQPGENL
With B2, the pKd result in [1] (setting [25]), in [2] (setting [25]), in test [3] (setting [25]), in [4] (setting [25]), in test [5] (setting [25]) and in test [6] (setting [25]) was “below the threshold” each time. Moreover, the pKd in test [7] (setting [25]) is 3.58; in test [8] (setting [25]) it was “below the threshold”; in [9] (setting [25]) it was “below the threshold”; in [10] (setting [25]) it was “below the threshold”; in [11] (setting [25]), “below the threshold”; in [12] (setting [25]), 3.84. Besides, the pKd result in test [13] (setting [25]) is “below the threshold”; in [14] (setting [25]), “below the threshold”; in [15] (setting [25]), “below the threshold”; in [16] (setting [25]), 4; in test [17] (setting [25]), “below the threshold”; in [18] (setting [25]) it was 3.59. Further, the pKd result in [19] (setting [25]) was “below the threshold”; in [20] (setting [25]), “below the threshold”; in test [21] (setting [25]), “below the threshold”; in test [22] (setting [25]), “below the threshold”; in test [23] (setting [25]), “below the threshold”; in [24] (setting [25]), 3.56.

B3: CGN, Q9P2M7 (peptide)
chain: TESNLQTSSC
Consider B3, for which the pKd result in test [1] (setting [26]), in test [2] (setting [26]), in test [3] (setting [26]), in test [4] (setting [26]), in test [5] (setting [26]) and in test [6] (setting [26]) was “below the threshold” throughout. The negative-log Kd (pKd) entry in test [7] (setting [26]), in [8] (setting [26]), in test [9] (setting [26]), in [10] (setting [26]), in test [11] (setting [26]) and in test [12] (setting [26]) was “below the threshold” in each case. For the same molecule, the negative-log Kd (pKd) entry in [13] (setting [26]) was “below the threshold”; in test [14] (setting [26]), “below the threshold”; in test [15] (setting [26]), “below the threshold”; in test [16] (setting [26]) it was 3.51; in [17] (setting [26]), “below the threshold”; in [18] (setting [26]), “below the threshold”. Also, the pKd result in test [19] (setting [26]) is “below the threshold”; in test [20] (setting [26]), “below the threshold”; in test [21] (setting [26]) it was “below the threshold”; in test [22] (setting [26]), “below the threshold”; in test [23] (setting [26]), 3.71; in test [24] (setting [26]), “below the threshold”.

B4: TIAM1, Q13009 (peptide)
chain: APSRKLNTEI
As to B4, the pKd result in test [1] (setting [26]), in test [2] (setting [26]), in test [3] (setting [26]), in [4] (setting [26]), in [5] (setting [26]) and in test [6] (setting [26]) was “below the threshold” each time. The pKd result in test [7] (setting [26]), in test [8] (setting [26]), in test [9] (setting [26]), in test [10] (setting [26]), in test [11] (setting [26]) and in [12] (setting [26]) was “below the threshold” each time. Moreover, the pKd result was “below the threshold” in test [13] (setting [26]); “below the threshold” in [14] (setting [26]); 4.08 in [15] (setting [26]); “below the threshold” in test [16] (setting [26]); “below the threshold” in [17] (setting [26]); “below the threshold” in test [18] (setting [26]). Also, the pKd entry in [19] (setting [26]) was “below the threshold”; in test [20] (setting [26]), “below the threshold”; in test [21] (setting [26]) it was “below the threshold”; in test [22] (setting [26]), “below the threshold”; in [23] (setting [26]), 3.76; in test [24] (setting [26]), “below the threshold”.
